Data published in patent US20180230225A1 (LEGEND BIOTECH USA, published 2018).

T1: recombinant human CD38 protein having a C-terminal His tag (ACRO Biosystems, Cat No.: CD8-H5224) (human, UniProt P28907 43-300)
T1 construct: Bought protein; not shown: C-terminal His tag
T1 sequence (looked up): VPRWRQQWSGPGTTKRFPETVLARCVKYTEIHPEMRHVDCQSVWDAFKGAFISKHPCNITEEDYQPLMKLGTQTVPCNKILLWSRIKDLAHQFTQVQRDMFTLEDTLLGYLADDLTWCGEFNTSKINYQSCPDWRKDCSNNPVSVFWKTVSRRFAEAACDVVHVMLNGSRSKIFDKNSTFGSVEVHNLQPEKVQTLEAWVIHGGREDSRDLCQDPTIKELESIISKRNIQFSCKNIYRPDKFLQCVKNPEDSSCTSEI

T2: recombinant human BCMA protein having a C-terminal Fc tag (ACRO Biosystems, Cat No.: BC7-H5254) (human, UniProt Q02223 1-54)
T2 construct: Bought protein; Clones were also screened on CHO cells expressing human BCMA (CHO-BCMA); also called CD269; not shown: C-terminal Fc tag
T2 sequence (looked up): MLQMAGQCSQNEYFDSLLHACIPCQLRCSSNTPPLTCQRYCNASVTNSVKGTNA


Assays:
[1] = target: T1, recombinant human CD38 protein having a …; test: phage ELISA on the recombinant antigen, by a process similar to the one described for BCMA
[2] = target: T2, recombinant human BCMA protein having a …; test: phage ELISA: plate coated with recombinant human BCMA protein (Fc control protein in parallel) or CHO-BCMA cells; phage supernatant, HRP anti-M13, A450
Description: Phage ELISA was performed to identify clones specific to the target antigens. Individual output phage clones were grown in 96-deep-well plate and rescued by M13KO7 helper phage overnight. To identify clones that bind to antigen proteins, 96-well ELISA microtiter plates were coated with recombinant human BCMA protein and Fc control protein respectively in coating buffer overnight at 4° C., and the plates were then blocked with blocking buffer. After blocking, approximately 50 μl per well of phage supernatant from the overnight cell culture was added to the plates for 1.5-hour incubation at 4° C. The plates were washed four times, and the HRP-conjugated anti-M13 monoclonal antibody was added to the plates for 45-minute incubation at 4° C. The plates were again washed five times and substrate solution was added to the wells for developing. Absorption at 450 nm was measured for each well.
To identify clones that bind CHO-BCMA cells, the CHO-BCMA cells were blocked with blocking buffer at room temperature for 1 hour. After blocking, approximately 20 μl per well of phage supernatant from the overnight cell culture was added to the cell solutions for 1-hour incubation at room temperature. After the cells were washed 4 times, the HRP-conjugated anti-M13 monoclonal antibody was added for 30-minute incubation at room temperature. The cells were washed five times and substrate solution was then added for developing. The absorption was measured at 450 nm.

| Binder | binding result [1] | binding result [2] |
| --- | --- | --- |
| 38A37699 (VHH, Llama VHH from an immune phage library; also called anti-CD38 sdAb) VHH: QVQLVESGGGLVQAGGSLRLSCAASGRIFSINAMGWYRQAPGKQRELVAAISTAGSTNYGDSVKGRFTISRDNAKNTVYLQMNSLKPEDTAVYYCNLNFPPYVYWGQGTQVTVSS | binds | – |
| 38A37330 (VHH, Llama VHH from an immune phage library; also called anti-CD38 sdAb) VHH: QVQLVESGGGLVQAGDSLRLSCAASGRAYATMAWFRQAPGKEREFVAHLRVSGDTTYYTDSVKGRFTISRDNAKNTAYLQMNMLKPEDTAVYYCAAGPYGILAAARVSNPGNYDYWGQGTQVTVSS | binds | – |
| 38A37719 (VHH, Llama VHH from an immune phage library; also called anti-CD38 sdAb) VHH: QVKLEESGGGSVQTGGSLRLSCAASASIFTRLPMGWYRQAPGKQRELVVGIVPSGRINYADSVKGRFTISRDNAKNTVYLQMNSLRPEDTAVYYCRADTFPLPTWGQGTQVTVSS | binds | – |
| 269A37965 (VHH, Llama VHH from an immune phage library; also called anti-BCMA sdAb) VHH: AVQLVESGGGLVQAGDSLRLSCTASGATLTNDHMAWFRQAPGKGREFVAAIDWSGRTTNYADPVEGRFTISRNNAKNTVYLEMNSLKLEDTAVYYCAVLRAWISYDNDYWGQGTQVTVSS | – | binds |
| 38A37336 (VHH, Llama VHH from an immune phage library; also called anti-CD38 sdAb) VHH: EVQLVESGGGLVQPGGSLRLSCAASGFTFSSNWMYWVRQAPGKGLEWVATISTDGRGTYYKDSVKGRFTVSRDNAMSTLLLQMNNLKSEDTAVYYCAKEPRVLMAYLRNLGDFGSWGQGTQVTVSS | binds | – |
| 38A37333 (VHH, Llama VHH from an immune phage library; also called anti-CD38 sdAb) VHH: DVQLVESGGGLVQPGGSLRLSCVASGLTFSSYPMMWVRQAPGKGLEWVSRISDSGGYTNYDDSVKGRFTISRDNAKNTLYLQMNSLTPEDTAVYYCRILGLPTTGQGTQVTVSS | binds | – |
| 269A37915 (VHH, Llama VHH from an immune phage library; also called anti-BCMA sdAb) VHH: EVQLVESGGGLVQAGGSLRLSCAASGRTFSSIVMGWFRQAPGKEREFVGAIMWNDGITYLQDSVKGRFTIFRDNAKNTVYLQMNSLKLEDTAVYYCAASKGRYSEYEYWGQGTQVTVSS | – | binds |
| 269A37953 (VHH, Llama VHH from an immune phage library; also called anti-BCMA sdAb) VHH: EVQLVESGGGMVQAGDSLRLSCVQSTYTVNSDVMGWFRQAPGKEREFVGAIMWNDGITYLQDSVKGRFTIFRDNAKNTVYLQMNSLKLEDTAVYYCAASKGRYSEYEYWGQGTQVTVSS | – | binds |
| 38A37340 (VHH, Llama VHH from an immune phage library; also called anti-CD38 sdAb) VHH: DVQLVESGGGLVQAGDSLRLSCAASGRTFSSYAMAWFRQAPGKEREIVSSISTSGGITDYADSVKGRFTISKDSAKMNTVYLQMNSLEPEDTAVYYCAARTWYLRTSLQYDYWGQGTQVTVSS | binds | – |
| 38A37731 (VHH, Llama VHH from an immune phage library; also called anti-CD38 sdAb) VHH: QVKLEESGGGLVQAGGSLRLSCVASGTIVSISTMGWYRQAPGKQRELVATITRRGRTNYTDSVKGRFTISRDNAKNTVYLQMNSLKPEDTAVYYCNAEVQLDIWASAYDYWGQGTQVTVAS | binds | – |
| 38A37331 (VHH, Llama VHH from an immune phage library; also called anti-CD38 sdAb) VHH: QVKLEESGGGLVQPGESLRLSCSASGSIFKVFRVFAMSWYRQGPGKQRELVASISSGETTTYADSVKGRFTISRDNAKNTAYLQMDSLKPEDTAVYYCNADHTFTGDFWGQGTQVTVSS | binds | – |
| 269A37972 (VHH, Llama VHH from an immune phage library; also called anti-BCMA sdAb) VHH: QVQLVESGGGLVQAGGSLRLSCAASGGTLSKNTVAWFRQAPGKERGFVASITWDGRTTYYADSVKGRFTISRDNAKNTVYLQMNSLKPEDTAVYVCADLGKWPAGPADYWGQGTQVTVSS | – | binds |
| 269A37355 (VHH, Llama VHH from an immune phage library; also called anti-BCMA sdAb) VHH: AVQLVDSGGGLVQPGGSLRLSCVASGGIFVINAMGWYRQAPGKQRELVASIRGLGRTNYDDSVKGRFTISRDNANNTVYLQMNSLEPEDTAVYYCTVYVTLLGGVNRDYWGQGTQVTVSS | – | binds |
| 269A37936 (VHH, Llama VHH from an immune phage library; also called anti-BCMA sdAb) VHH: EVQLVESGGGVVQAGGSLTVSCTASGFTFDRAVIVWFRQAPGKGREGVSFIKPSDGTIYYIDSLKGRFTISSDIAKNTVYLQMKSLESEDSAVYYCAASPEDWYTDWIDWSIYRWQHWGQGTQVTVSS | – | binds |
| 38A37326 (VHH, Llama VHH from an immune phage library; also called anti-CD38 sdAb) VHH: EVQLVESGGGLVQAGGSLRLSCAASGRTYAMGWYRQAPGKQRDLVATISGAGNTKYADSVKGRFTISRDNAKNTMYLQMNSLKPEDTAVYYCAAGKWFPAANEYWGQGTQVTVSS | binds | – |
| 269A37948 (VHH, Llama VHH from an immune phage library; also called anti-BCMA sdAb) VHH: AVQLVESGGGLVQAGDSLRLTCTASGRAFSTYFMAWFRQAPGKEREFVAGIAWSGGSTAYADSVKGRFTISRDNAKNTVYLQMNSLKSEDTAVYYCASRGIEVEEFGAWGQGTQVTVSS | – | binds |
| 38A37334 (VHH, Llama VHH from an immune phage library; also called anti-CD38 sdAb) VHH: EVQLVESGGGLVQAGGSLRLSCAASGLTFSSYIMGWFRQAPGEERELVAEISSGGMTSYADSVKGRFTISRDNAKKTGYLQMNSLKPEDTAVYYCAAPERGSIWYSRYEYKYWGQGTQVTVSS | binds | – |
